From article PMC3169596, “G4-DNA Formation in the HRAS Promoter and Rational Design of Decoy Oligonucleotides for Cancer Therapy”

Biological target: T1, MAZ-GST (UniProt P56270 1-477)
T1 sequence: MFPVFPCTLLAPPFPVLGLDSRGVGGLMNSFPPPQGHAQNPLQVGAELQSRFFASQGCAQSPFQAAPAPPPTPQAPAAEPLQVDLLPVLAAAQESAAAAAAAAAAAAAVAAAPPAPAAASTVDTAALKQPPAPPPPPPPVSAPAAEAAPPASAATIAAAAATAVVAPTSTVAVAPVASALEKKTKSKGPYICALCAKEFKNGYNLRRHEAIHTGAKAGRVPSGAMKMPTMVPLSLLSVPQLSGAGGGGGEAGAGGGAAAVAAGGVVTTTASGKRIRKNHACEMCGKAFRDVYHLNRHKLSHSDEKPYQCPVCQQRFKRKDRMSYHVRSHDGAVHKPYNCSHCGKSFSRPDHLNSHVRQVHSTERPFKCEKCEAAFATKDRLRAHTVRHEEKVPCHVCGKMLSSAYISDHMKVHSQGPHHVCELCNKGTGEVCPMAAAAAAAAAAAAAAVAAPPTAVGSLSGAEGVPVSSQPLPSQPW
Assay: EMSA; 50 mM KCl, pH 7.4, poly d(I-C); apparent Kd given for the HRAS quadruplexes together; EMSA: 20 mM Tris-HCl pH 8, 30 mM KCl, 1.5 mM MgCl2, 1 mM DTT, 8% glycerol, 5 mM NaF, 1 mM Na3VO4, 2.5 ng/ml poly[dI-dC], 30 min room temperature (Figure 6c: pH)
Conditions: protein: recombinant; tags: GST; label: 33P; antiparallel intramolecular G4 in K+

Question: TCGGGTTGCGGGCGCAGGGCACGGGCG (structured_DNA) [qhras-1 (quadruplex hras-1, H1)] was tested. Which Kd did it give?
Answer: The Kd was roughly 1500 nM.
